Patent publication US20240352121A1, “LAIR-1 AGONISTIC ANTIBODIES AND METHODS OF USE THEREOF” (NEXTCURE, INC., priority 2023, published 2024)

Assays:
[1] = Pharmacokinetic study in balb/c mice; format: in vivo; details: 10 mg/kg intraperitoneal, blood serum
Method: Balb/c mice were intraperitoneally injected with 10 mg/kg h11B3. Mice were subsequently bled by cheek-vein puncture at the indicated time points. Blood serum was isolated by centrifugation at 2500 RCF in serum-collection tubes. Blood serum was tested for circulating h11B3 by Universal PK assay. Briefly, h11B3 in mouse serum was captured using a biotin-labeled anti-human IgG inside a nanoliter column of a Gyrolab CD. Alexa Fluor labeled anti-human IgG was used for detection. The quantitative dynamic range was (500-100,000) ng/ml (LLOQ-ULOQ). The standard curve and controls were prepared in pooled Balb/C serum (Biochemed). Standard curve, controls, and samples were diluted 1:10-fold (MRD) in buffer. Samples above the upper limit of quantitation (100,000 ng/mL) were brought within range by diluting them in Rexiip buffer. The laser-induced fluorescence detection technique detected the amount of analyte present in the sample. The standard curve signals were used to interpolate unknown sample concentrations. All samples were analyzed in duplicates and assigned an acceptance criteria (±20% CV and Bias). Gyrolab Evaluator software was used to perform 4PL with Y weighing non-linear regression to interpolate unknown sample concentrations.

[2] = tested on: AML patient LSCs engrafted in mice; experiment: AML patient-derived xenograft (PDX) model; format: in vivo, NSG-SGM3 mice; details: 5 mg/kg i.p. weekly, 4 doses; at any time point
Method: Newborn (3-5 day from birth) NSG-SGM3 pups were sub-lethally (200 cGy) irradiated. 12 hours post-irradiation, mice were intra-hepatically transplanted with 0.2e6 AML bone-marrow cells or normal CD34 HSCs from cryopreserved stocks. 6 weeks post-transplant, blood was collected to assess engraftment of progenitor cells via flow cytometry, staining for human CD45, human CD33, and human CD3. Once engraftment of human cells was confirmed, 5 mg/kg of anti-human LAIR-1 mAb or isotype control was intraperitoneally injected weekly for a total of 4 doses. At the indicated timepoints post-treatment, blood was collected to assess the proliferation of AML cells as a measure of LAIR-1 mAb anti-leukemic activity as compared to isotype control. For standard-of-care combination studies, PDX mice were treated with 20 mg/kg venetoclax 5 days on and 2 days off for 5 weeks, and X 1.5 mg/kf-tiw azacytidine upfront one week only. LAIR-1 mAb was treated i.p. once per week for 5 weeks. Blood was harvested as described above to measure leukemic growth and spleens were harvested at endpoint and weighed for assessment of splenomegaly. For secondary transplant studies, mice were engrafted as above. […] Leukemia progression in recipient mice was measured by flow cytometry by quantifying the percent of human CD33^+ human CD45^+ cells in peripheral blood at weeks 4, 6, and 10 weeks post-transplant.

[3] = tested on: AML patient bone-marrow cells (LSCs); experiment: Colony forming unit assay, AML patient bone-marrow; format: cell-based, human; details: titrated concentrations, dose-response; vs isotype or vehicle
Method: (§1) Cryopreserved AML bone-marrow cells or healthy donor CD34 cells were thawed and plated in 96 wells plates. Cells were engaged with the indicated concentrations of LAIR-1 mAb or isotype control for 30 min at room temperature. Subsequently, cells were diluted in IMDM with 2% FBS and mixed with semisolid methylcellulose-based medium (MethoCult H4435 Enriched, StemCell Technologies, Vancouver, Canada) which contains human cytokines (stem cell factor, IL-3, IL-6, EPO, G-CSF, GM-CSF). Then, between 1e4 and 2.5e5 LSCs, or, between 1e3 and 5e3 healthy donor CD34 cells per well were plated on 6-well SmartDishes (StemCell Technologies, Vancouver, Canada). The cell-loaded plates were incubated at 37° C. with 5% CO2 in air and ≥95% humidity. On day 14, colony formation was counted by STEMvision (StemCell Technologies, Vancouver, Canada), an automated and standardized colony counting instrument. The automated results were confirmed and edited manually by the STEMvision Colony Marker software.

[4] = tested on: bone-marrow cells from healthy control donors; format: cell-based, human
Method: as §1

THP-1 cells = experiment: THP-1-luciferase cell-derived xenograft (CDX) model; format: in vivo, NSG mice; details: 10 mg/kg i.p. twice a week
Method: FIGS. 29A-29C display h11B3 LAIR-1 mAbs, containing a variable light chain of SEQ ID NO: 16 and a variable heavy chain of SEQ ID NO:27, limits Leukemic cell growth in CDX Models. 2e6 luciferase-expressing MV4-11-Luc or THP-1-Luc cells were suspended in sterile PBS and implanted into NSG mice via tail-vein injection. Starting on day 8 post-challenge, mice were treated twice-weekly by intraperitoneal (i.p.) injection of 10 mg/kg of h11B3 LAIR-1 mAbs, containing a variable light chain of SEQ ID NO: 16 and a variable heavy chain of SEQ ID NO:27, or isotype (FIG. 29A). AML cell proliferation was monitored by weekly i.p. injection of D-Luciferin, immediately followed by IVIS bioluminescent imaging and quantification of luminescent signal. Mice NOD.Cg-Prkdcscid Il2rgtm1Wjl/SzJ (NSG) purchased from Jackson Labs strain #005557. Substrate Xenolight RediJect D-Luciferin Perkin Elmore Cat #770504. Imaging Perkin Elmore IVIS Lumina XRMS Series III.
NSG mice were injected with 2e6 THP-1 luciferase cells or 2e6 MV4-11-luciferase cells via tail vein injection. Leukemia progression was quantified by i.p. injection of 100 μL bioluminescent substrate and IVIS imaging 8 minutes post injection. Progression was assessed weekly staring on Day 7 post-challenge. […] Tumor growth was measured by calipers twice weekly until end point.

B1: LAIR-1 mAb: humanized agonist anti-LAIR-1 mAb, IgG1 backbone; h11B3 VL-2 (SEQ ID NO: 16), h11B3 VH-3 (SEQ ID NO: 27) (antibody, V domains shown)
VH: EVQLVESGGGLVQPGGSLKLSCAASGFTFNTNAMYWVRQAPGKGLEWVGRIRSKSSNYATYYAASVKGRFTISRDDSKNTLYLQMNSLKTEDTAVYYCVRGGSGFFAYWGQGTLVTVSS
VL: DIQMTQSPSSLSASLGDRVTITCKASEDIYIRLAWYQQKPGKAPRLLISTATSLETGVPSRFSGSGSGTDYTFTISSLQPEDIATYYCQQYWSTPYTFGGGTRLEIK
modifications: IgG1 constant regions; Synthetic: h11B3 VH-3; Synthetic: h11B3 VL-2
- Tmax [1]: 8 h
- human CD45 CD33 cells in circulation [2]: < 10%
- CFU formation [3]: significantly decreased
- CFU formation [4]: no change
- leukemic cell growth in vivo (THP-1 cells): inhibited leukemic cell growth
